The text below walks through data of paper PMC10825186, “A universal metabolite repair enzyme removes a strong inhibitor of the TCA cycle” (Nature Communications, 2024).

Positions count from the first letter of the chain named. Names may count otherwise.

Series [1] addresses T1, bovine succinate dehydrogenase (SDH) (Bos taurus, UniProt P31039).
T1 construct: gene SDHA; native complex II, dodecyl-maltoside-solubilized and enriched from bovine heart submitochondrial particles; with Succinate dehydrogenase [ubiquinone] iron-sulfur subunit, mitochondrial; Succinate dehydrogenase cytochrome b560 subunit, mitochondrial; Succinate dehydrogenase [ubiquinone] cytochrome b small subunit, mitochondrial
Briefly: DCIP reduction at […] nm. As to conditions: 2 mM malate, 0.1 mM decylubiquinone, GOT and glutamate, pH 7.1, 22 °C; product enol-OAA. In kind it is biochemical.

Substrate in the series “purified protein”: O=C(O)C=C(O)C(=O)O
Briefly: purified protein. As to conditions: pH 7.5, 22 °C, 10 mM potassium phosphate, 0.3 mM NADH, malate dehydrogenase, OAA added in dry acetone.

T1 sequence (P31039 44-665): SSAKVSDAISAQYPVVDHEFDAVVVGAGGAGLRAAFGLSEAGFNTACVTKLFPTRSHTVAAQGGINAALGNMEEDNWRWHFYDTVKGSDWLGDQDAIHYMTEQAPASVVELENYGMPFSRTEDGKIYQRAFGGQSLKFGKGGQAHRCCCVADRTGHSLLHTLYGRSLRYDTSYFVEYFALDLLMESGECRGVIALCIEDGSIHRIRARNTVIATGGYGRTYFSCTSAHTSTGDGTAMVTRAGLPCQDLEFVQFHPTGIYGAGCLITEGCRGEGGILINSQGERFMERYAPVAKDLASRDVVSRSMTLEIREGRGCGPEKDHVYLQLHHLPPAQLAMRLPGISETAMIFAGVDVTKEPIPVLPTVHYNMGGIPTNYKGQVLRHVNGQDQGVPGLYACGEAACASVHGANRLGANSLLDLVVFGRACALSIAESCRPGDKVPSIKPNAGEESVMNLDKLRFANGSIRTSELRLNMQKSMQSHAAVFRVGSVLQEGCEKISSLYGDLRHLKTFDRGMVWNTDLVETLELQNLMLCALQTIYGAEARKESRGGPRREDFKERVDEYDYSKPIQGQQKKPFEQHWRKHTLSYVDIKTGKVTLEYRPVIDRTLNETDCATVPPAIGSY
T1 sequence (Q3T189 29-280 partner): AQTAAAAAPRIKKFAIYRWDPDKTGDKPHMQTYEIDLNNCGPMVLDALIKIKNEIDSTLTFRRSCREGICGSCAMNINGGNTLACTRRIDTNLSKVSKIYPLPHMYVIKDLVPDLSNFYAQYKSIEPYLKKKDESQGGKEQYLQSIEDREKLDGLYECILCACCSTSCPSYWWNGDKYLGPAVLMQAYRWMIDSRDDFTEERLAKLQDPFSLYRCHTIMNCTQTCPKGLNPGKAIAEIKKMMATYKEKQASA
T1 sequence (P35720 30-169 partner): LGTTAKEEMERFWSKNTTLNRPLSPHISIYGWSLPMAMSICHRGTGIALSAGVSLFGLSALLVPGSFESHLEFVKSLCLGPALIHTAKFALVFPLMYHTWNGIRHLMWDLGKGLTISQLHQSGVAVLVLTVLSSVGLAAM
T1 sequence (Q95123 56-158 partner): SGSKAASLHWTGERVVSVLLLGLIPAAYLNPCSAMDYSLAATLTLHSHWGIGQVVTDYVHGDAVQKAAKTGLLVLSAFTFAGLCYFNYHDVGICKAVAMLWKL

Turning to `O=C(O)C[C@H](O)C(=O)O` [malate], in series [1], the “DCIP reduction at 600 nm” value was “These results confirm that malate oxidation by SDH forms enol-OAA”.

B1: Ec YcgM (Escherichia coli K-12) (protein)
chain: MYQHHNWQGALLDYPVSKVVCVGSNYAKHIKEMGSAVPEEPVLFIKPETALCDLRQPLAIPSDFGSVHHEVELAVLIGATLRQATEEHVRKAIAGYGVALDLTLRDVQGKMKKAGQPWEKAKAFDNSCPLSGFIPAAEFTGDPQNTTLSLSVNGEQRQQGTTADMIHKIVPLIAYMSKFFTLKAGDVVLTGTPDGVGPLQSGDELTVTFDGHSLTTRVL
What is called Km is the substrate concentration at which the rate is half of its maximum. For orientation: Vmax means the top rate of the reaction or transport when substrate is in excess. By kcat is commonly meant the number of substrate molecules converted per active site and unit of time at saturation. As usually defined, the kcat/Km is the second-order rate constant that governs catalysis at low substrate concentration. In the case of B1, in “purified protein”, the Km turned out to be 26.9 ± 0.4 µM, the Vmax is 372 µmol/min/mg, the turnover number (kcat) worked out at 161 s⁻¹ and the kcat/Km came to 5.95e+06 M⁻¹ s⁻¹.

B2: Hs FAHD1 (Homo sapiens) (protein)
chain: MGIMAASRPLSRFWEWGKNIVCVGRNYADHVREMRSAVLSEPVLFLKPSTAYAPEGSPILMPAYTRNLHHELELGVVMGKRCRAVPEAAAMDYVGGYALCLDMTARDVQDECKKKGLPWTLAKSFTASCPVSAFVPKEKIPDPHKLKLWLKVNGELRQEGETSSMIFSIPYIISYVSKIITLEEGDIILTGTPKGVGPVKENDEIEAGIHGLVSMTFKVEKPEY
As for B2, in “purified protein”, the Km was found to be 15.8 ± 5.9 µM, the Vmax was determined as 69 µmol/min/mg, the kcat is 31.1 s⁻¹ and the catalytic efficiency (kcat/Km) came out at 1.99e+06 M⁻¹ s⁻¹.

B3: Bs YisK (Bacillus subtilis subsp. subtilis str. 168) (protein)
chain: MKFATGELYNRMFVGLIIDDEKIMDLQKAEKKLFELETIPGSLIECIAEGDKFVAHARQLAEWAKKPNDELGSFMYSLSEVKLHAPIPKPSKNIICIGKNYRDHAIEMGSEADIPEHPMVFTKSPVTVTGHGDIVKSHEEVTSQLDYEGELAVVIGKSGTRISKEDAYDHVFGYTIVNDITARDLQKRHKQFFIGKSLDTTCPMGPVLVHKSSIQEPERLKVETRVNGELRQSGSASDMIFSIPELIETLSKGMTLEAGDIIATGTPSGVGKGFTPPKFLRSGDKIDITIDPIGTLSNQIG
Consider B3, for which, in the series “purified protein”, the Km turned out to be 43.8 ± 8.1 µM, the Vmax was 402 µmol/min/mg, the kcat amounted to 237 s⁻¹ and the kcat/Km was 5.81e+06 M⁻¹ s⁻¹.

B4: Bt FAHD2A (Bos taurus) (protein)
chain: ATQLPVLPRSEVTFLAPVTRPDKVVCVGMNYADHCREQNVPVPKEPIIFSKFASAIVGPYDNIILPPESQEVDWEVELAVVIGKRGKYIKATDAMAHVAGFTVAHDVSARDWQMGRNGKQWLLGKTFDTFCPLGPALVTKDSVADPHNLKICCRVNGEVMQSSNTNQMVFKTEELITWVSQFVTLYPGDIILTGTPPGVGVFRKPPVFLKKGDEVQCEIEELGVIINKVV
B4: in “purified protein”, the Km came to 20.2 ± 1.4 µM, the maximal velocity (Vmax) was found to be 53.5 µmol/min/mg, the kcat was found to be 32.7 s⁻¹ and the catalytic efficiency (kcat/Km) came to 1.63e+06 M⁻¹ s⁻¹.

B5: Hs FAHD2A (Homo sapiens) (protein)
chain: AAQLPVLPRSEVTFLAPVTRPDKVVCVGMNYVDHCKEQNVPVPKEPIIFSKFASSIVGPYDEVVLPPQSQEVDWEVELAVVIGKKGKHIKATDAMAHVAGFTVAHDVSARDWQMRRNGKQWLLGKTFDTFCPLGPALVTKDSVADPHNLKICCRVNGEVVQSGNTNQMVFKTEDLIAWVSQFVTFYPGDVILTGTPPGVGVFRKPPVFLKKGDEVQCEIEELGVIINKVV
As for B5, in the series “purified protein”, the Km is 22.2 ± 3.6 µM, the Vmax came out at 22.2 µmol/min/mg, the kcat came out at 13.6 s⁻¹ and the kcat/Km was 628000 M⁻¹ s⁻¹.

B6: Hs FAHD2B (Homo sapiens) (protein)
chain: B5 chain with R9W, R20W, Q113L, M114T, G163S
B6: in “purified protein”, the Km is 296 ± 12 µM, the Vmax was determined as 112 µmol/min/mg, the kcat came to 68.7 s⁻¹ and the kcat/Km worked out at 232000 M⁻¹ s⁻¹.

B7: Sc FMP41 (Saccharomyces cerevisiae S288C) (protein)
chain: MSYNYLKAARKIICIGRNYAAHIKELNNSTPKQPFFFLKPTSSIVTPLSSSLVKTTRPANSTFNGLNEDGTNPGPIFIPRGVKVHHEIELALIVSKHLSNVTKMKPEEVYDSISGVALALDLTARNVQDEAKKKGLPWTISKGFDTFMPISAIVSREKFSSYKSNLQDIFRVKCSVNGQLRQDGGTNLMLHPLHKILQHISTMISLEPGDIILTGTPAGVGELKPGDRVHCELLQNNDNIVDMNFECENRPGPYEFRET
For the molecule B7, in the series “purified protein”, the Km worked out at 219 ± 23 µM, the Vmax worked out at 717 µmol/min/mg, the kcat came to 369 s⁻¹ and the kcat/Km was determined as 1.75e+06 M⁻¹ s⁻¹.
